Measured values as given in the supplement of paper PMC10126150.
± gives the standard deviation of the averaged measurements.

test system: ATP; assay: switch fluorescence ratio, 500 uM ATP over buffer (Cy3 cluster intensity, sum of 5 cycles each) (fold (ratio)); higher = stronger signal-on switching upon ATP binding; sequences stand for … in TCGTCGGCAGCGTCAGATGTGTATAAGAGACAGTTTTTTTTTTTTTTTTTTTTTTTTT…TC; conditions: aptamer strand: ATP DNA aptamer (quencher-CACCTGGGGGAGTATTGCGGAGGAAGG + anchor), 100 nM annealed; ATP concentration: 500 uM
How it was run: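 Clusters with intensities outside 100-1000 RFU were excluded. The remaining Cy3-labelled switching-strand clusters on a modified Illumina MiSeq flow-cell had been annealed to 100 nM quencher-labelled ATP aptamer and imaged in selection buffer, then after 15 min with 500 uM ATP at 22 °C, for five cycles separated by NaOH stripping and re-annealing. The fluorescence ratio, averaged per switch-domain sequence, is each cluster's summed target-cycle Cy3 intensity over its summed buffer-cycle Cy3 intensity.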
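Further: ATP exposure 15 min at 22 °C before imaging.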

| Sequence | switch fluorescence ratio |
| --- | --- |
| ATGTTGAGTG | 0.995 ± 0.031 |
| ATGTTGGGCG | 0.996 ± 0.052 |
| ATGTTGGGCT | 0.962 ± 0.018 |
| ATGTTGGTAC | 1.04 ± 0.02 |
| ATGTTGGTCG | 0.974 ± 0.028 |
| ATGTTGGTGT | 0.991 ± 0.045 |
| ATGTTTACTG | 1.033 ± 0.0082 |
| ATGTTTATTG | 0.998 ± 0.018 |
| ATGTTTCATT | 0.9727 ± 0.0052 |
| ATGTTTGAGG | 0.989 ± 0.029 |
| ATGTTTGGGG | 1.03 ± 0.084 |
| ATGTTTGTCT | 0.97 ± 0.039 |
| ATGTTTTAAA | 0.9756 ± 0.0086 |
| ATGTTTTTGT | 0.989 ± 0.042 |
| ATTAAAATGG | 1.02 ± 0.017 |
| ATTAAAGCCC | 1.02 ± 0.039 |
| ATTAAATCGG | 1.01 ± 0.016 |
| ATTAAATTAA | 1.034 ± 0.01 |
| ATTAAGAATT | 0.9986 ± 0.0027 |
| ATTAAGCATG | 1.004 ± 0.0088 |
| ATTAAGGGGG | 0.9982 ± 0.0069 |
| ATTAAGGGTT | 1.02 ± 0.025 |
| ATTAAGTGTA | 0.98 ± 0.019 |
| ATTAATAAAG | 0.9984 ± 0.0086 |
| ATTAATAGCT | 1.05 ± 0.0049 |

| Sequence | switch fluorescence ratio |
| --- | --- |
| ATTAATAGTG | 0.967 ± 0.028 |
| ATTAATGGGA | 0.9986 ± 0.0061 |
| ATTAATTAGA | 0.975 ± 0.041 |
| ATTAATTAGG | 0.989 ± 0.015 |
| ATTAATTTCT | 1 ± 0.024 |
| ATTAATTTTA | 1.02 ± 0.041 |
| ATTACCAATT | 2.24 ± 1.8 |
| ATTACCAGGT | 1.27 ± 0.048 |
| ATTACCTATA | 1.05 ± 0.044 |
| ATTACGGCAG | 1.02 ± 0.059 |
| ATTACTAGTT | 0.9996 ± 0.0035 |
| ATTACTCGCG | 1.05 ± 0.012 |
| ATTACTTTGC | 1.05 ± 0.021 |
| ATTAGAAAGC | 0.981 ± 0.039 |
| ATTAGAATGT | 1.02 ± 0.023 |
| ATTAGATGGT | 1.02 ± 0.024 |
| ATTAGCACGG | 0.997 ± 0.013 |
| ATTAGCAGCA | 1.05 ± 0.025 |
| ATTAGGATAG | 1 ± 0.054 |
| ATTAGGATTT | 0.998 ± 0.0097 |
| ATTAGGCATG | 1 ± 0.042 |
| ATTAGGTCGG | 0.979 ± 0.023 |
| ATTAGGTTAT | 1 ± 0.048 |
| ATTAGTAGGG | 0.9807 ± 0.0041 |
| ATTAGTGATG | 0.989 ± 0.016 |

| Sequence | switch fluorescence ratio |
| --- | --- |
| ATTAGTGTTC | 0.987 ± 0.043 |
| ATTAGTGTTG | 0.956 ± 0.022 |
| ATTAGTGTTT | 0.976 ± 0.027 |
| ATTAGTTGGG | 1.0052 ± 0.00057 |
| ATTAGTTTTT | 0.9731 ± 0.0076 |
| ATTATAAAAC | 1.03 ± 0.045 |
| ATTATAAAAG | 0.989 ± 0.012 |
| ATTATAGCGG | 0.9984 ± 0.0073 |
| ATTATAGGG | 1 ± 0.015 |
| ATTATAGTGG | 1.04 ± 0.02 |
| ATTATAGTTT | 1.03 ± 0.049 |
| ATTATATAGC | 0.996 ± 0.031 |
| ATTATCAGCG | 1.01 ± 0.019 |
| ATTATCATGT | 1 ± 0.074 |
| ATTATCCAGC | 1.01 ± 0.017 |
| ATTATCTGCG | 1 ± 0.011 |
| ATTATCTGTG | 0.97 ± 0.039 |
| ATTATCTTCT | 0.994 ± 0.061 |
| ATTATGAAAG | 0.969 ± 0.056 |
| ATTATGCCG | 0.993 ± 0.06 |
| ATTATGGTAA | 1 ± 0.018 |
| ATTATGTATC | 0.996 ± 0.011 |
| ATTATTAGCT | 0.996 ± 0.012 |
| ATTATTGGTT | 1.02 ± 0.029 |
| ATTATTGTGT | 0.9903 ± 0.0075 |

| Sequence | switch fluorescence ratio |
| --- | --- |
| ATTATTTTGC | 0.9464 ± 0.0026 |
| ATTCAACAAT | 1 ± 0.016 |
| ATTCAATCGG | 0.98 ± 0.024 |
| ATTCAATTGT | 0.974 ± 0.013 |
| ATTCACTCGT | 1.11 ± 0.13 |
| ATTCACTCTA | 1.08 ± 0.026 |
| ATTCAGGTGT | 2.66 ± 0.29 |
| ATTCATAGTA | 0.9772 ± 0.0064 |
| ATTCATCGCT | 1.0258 ± 0.00018 |
| ATTCATGAT | 0.969 ± 0.044 |
| ATTCATTTTA | 0.999 ± 0.034 |
| ATTCCATTTG | 1.03 ± 0.05 |
| ATTCCGGGCT | 1.05 ± 0.031 |
| ATTCCGGTCT | 0.978 ± 0.011 |
| ATTCCTAACA | 1.008 ± 0.0089 |
| ATTCCTAGGT | 1.33 ± 0.45 |
| ATTCCTCTAG | 1.318 ± 0.0041 |
| ATTCCTGGGA | 1.03 ± 0.018 |
| ATTCCTGGGC | 1.03 ± 0.027 |
| ATTCCTTTGT | 1.01 ± 0.026 |
| ATTCGATATG | 0.997 ± 0.011 |
| ATTCGCTTTT | 1 ± 0.042 |
| ATTCGGGGAC | 1.058 ± 0.009 |
| ATTCGGGGTG | 1.05 ± 0.11 |
| ATTCGGGTTG | 0.985 ± 0.029 |

| Sequence | switch fluorescence ratio |
| --- | --- |
| ATTCGTATGT | 1.03 ± 0.03 |
| ATTCGTGGGG | 0.97 ± 0.032 |
| ATTCTAACGA | 1.032 ± 0.0036 |
| ATTCTACTGA | 1.06 ± 0.062 |
| ATTCTACTTA | 1.01 ± 0.018 |
| ATTCTCGTGC | 1.012 ± 0.0074 |
| ATTCTGACAC | 1.07 ± 0.028 |
| ATTCTGGGGG | 1.04 ± 0.048 |
| ATTCTGTACG | 1.05 ± 0.023 |
| ATTCTGTCGT | 1 ± 0.021 |
| ATTCTGTGGT | 0.97 ± 0.019 |
| ATTCTTAATG | 1.01 ± 0.021 |
| ATTCTTTGCC | 1.003 ± 0.006 |
| ATTGAAGGGT | 0.981 ± 0.034 |
| ATTGAATATT | 0.9935 ± 0.0015 |
| ATTGAATCAT | 1.005 ± 0.0033 |
| ATTGAATTAA | 1.04 ± 0.02 |
| ATTGAATTGT | 0.991 ± 0.037 |
| ATTGAGCCTG | 0.991 ± 0.022 |
| ATTGAGGAGA | 0.999 ± 0.033 |
| ATTGAGGCAG | 0.9824 ± 0.0028 |
| ATTGAGGTTT | 0.992 ± 0.022 |
| ATTGAGTTCT | 1 ± 0.012 |
| ATTGATATGG | 0.981 ± 0.04 |
| ATTGATCGAT | 1.02 ± 0.035 |

| Sequence | switch fluorescence ratio |
| --- | --- |
| ATTGATGT | 1.0234 ± 0.00096 |
| ATTGATTAAC | 1.013 ± 0.0043 |
| ATTGATTAGA | 0.99 ± 0.043 |
| ATTGATTC | 0.9868 ± 0.0031 |
| ATTGATTGTG | 0.983 ± 0.026 |
| ATTGATTTGC | 0.997 ± 0.058 |
| ATTGCATAAT | 1.06 ± 0.078 |
| ATTGCATTTT | 1.28 ± 0.43 |
| ATTGCCCGCG | 1.0228 ± 0.00058 |
| ATTGCCGTCA | 0.998 ± 0.024 |
| ATTGCGGGCA | 0.982 ± 0.035 |
| ATTGCGTTAT | 1.03 ± 0.018 |
| ATTGCTGGGT | 0.985 ± 0.033 |
| ATTGCTGTAC | 1.56 ± 0.048 |
| ATTGCTGTTC | 1.03 ± 0.037 |
| ATTGCTTTGG | 0.9976 ± 0.0015 |
| ATTGGAAAGG | 0.985 ± 0.031 |
| ATTGGAAGTT | 0.997 ± 0.014 |
| ATTGGAATGC | 1.26 ± 0.047 |
| ATTGGAATTG | 1.02 ± 0.035 |
| ATTGGAGTCG | 0.9477 ± 0.0084 |
| ATTGGATAGG | 1.01 ± 0.012 |
| ATTGGCAATA | 2.36 ± 1.9 |
| ATTGGCACGC | 1.36 ± 0.42 |
| ATTGGCAGGC | 1.05 ± 0.057 |

| Sequence | switch fluorescence ratio |
| --- | --- |
| ATTGGGAGAG | 1.02 ± 0.035 |
| ATTGGGAGC | 0.956 ± 0.015 |
| ATTGGGATT | 0.966 ± 0.046 |
| ATTGGGCATT | 1.018 ± 0.006 |
| ATTGGGGAAG | 0.996 ± 0.049 |
| ATTGGGGACT | 1.01 ± 0.019 |
| ATTGGGGAT | 1.02 ± 0.018 |
| ATTGGGGCCG | 1.01 ± 0.016 |
| ATTGGGGCTG | 0.9677 ± 0.006 |
| ATTGGGGGT | 1.026 ± 0.0062 |
| ATTGGGGGTC | 0.995 ± 0.05 |
| ATTGGGTAGG | 0.993 ± 0.025 |
| ATTGGTACTT | 0.986 ± 0.058 |
| ATTGGTATGC | 1.03 ± 0.011 |
| ATTGGTCCTG | 0.999 ± 0.02 |
| ATTGGTCTCA | 0.975 ± 0.023 |
| ATTGGTTAAA | 1 ± 0.026 |
| ATTGTAACAA | 1.037 ± 0.0089 |
| ATTGTAAGAT | 0.994 ± 0.027 |
| ATTGTAGGAC | 1.01 ± 0.036 |
| ATTGTCATGT | 1.047 ± 0.0062 |
| ATTGTCTATA | 0.981 ± 0.011 |
| ATTGTGAGGT | 0.992 ± 0.039 |
| ATTGTGGGTC | 1.04 ± 0.02 |
| ATTGTGGTTT | 1.01 ± 0.034 |

| Sequence | switch fluorescence ratio |
| --- | --- |
| ATTGTGTCTG | 1 ± 0.042 |
| ATTGTTATAT | 1 ± 0.03 |
| ATTGTTATCG | 1.02 ± 0.14 |
| ATTGTTTAAT | 1.03 ± 0.017 |
| ATTGTTTGAT | 1.01 ± 0.022 |
| ATTGTTTGCA | 1.02 ± 0.056 |
| ATTGTTTGGC | 1 ± 0.027 |
| ATTGTTTTTA | 0.998 ± 0.033 |
| ATTGTTTTTT | 0.995 ± 0.01 |
| ATTTAAGTGC | 0.981 ± 0.049 |
| ATTTAAGTTG | 0.987 ± 0.015 |
| ATTTAATGAA | 0.982 ± 0.021 |
| ATTTAATTCT | 0.9981 ± 0.0077 |
| ATTTACCCTG | 1.08 ± 0.022 |
| ATTTACGCCT | 1.12 ± 0.05 |
| ATTTACGTAT | 1.06 ± 0.044 |
| ATTTACGTCT | 1.04 ± 0.056 |
| ATTTAGACTA | 1.01 ± 0.027 |
| ATTTAGGACA | 1.01 ± 0.021 |
| ATTTAGGCAT | 0.987 ± 0.042 |
| ATTTAGGGGA | 1.04 ± 0.056 |
| ATTTAGTAGT | 0.994 ± 0.057 |
| ATTTAGTATC | 1.09 ± 0.14 |
| ATTTAGTGTT | 1 ± 0.024 |
| ATTTAGTTTC | 0.976 ± 0.026 |
